# Measured values published in publication PMC5724010 (The Journal of Biological Chemistry, 2017).
# Legend:
# [1] = biological target: FplA(20–431) (Fusobacterium nucleatum subsp. nucleatum, UniProt Q8R6F6); assay type: biochemical, F. nucleatum 25586
# [2] = test system: CCCCCCC(=O)Oc1ccc2c(C)cc(=O)oc2c1; assay: purified protein, by the assay type
# Procedure: (§1) In detail, FplA was used at 1 nM in the reaction, and substrate (50 mM stock in 100% DMSO) dilutions (0–200 μM) and reactions were carried out in reaction buffer (50 mM Tris, pH 8.5, 50 mM NaCl, 0.025% BOG). All samples, including controls, contained equal concentrations of DMSO (0.4%). Reactions were run at 26 °C for 30 min with 3 s of shaking between continuous fluorescent monitoring (excitation = 360 nm, emission = 449 nm) every 2 min on a SpectraMax M5^e plate reader. Relative fluorescence units measured upon cleavage of substrate ester bonds and release of the acyl chain were converted to the concentration of product (4-methylumbeliferone; 4-Mu) created by establishing a standard curve using pure 4-Mu (Sigma-Aldrich).
# (§2) The steady-state kinetic parameters for each substrate were determined using GraphPad Prism version 6 (GraphPad Software, La Jolla, CA) by fitting the initial rate data (n = 2) to the Michaelis–Menten equation, (Eq. 1) v=Vmax⁡[S]/(Km+[S]) to obtain the values reported in Fig. 2 and supplemental Fig. S3.
# [3] = test system: CCCC(=O)Oc1ccc2c(C)cc(=O)oc2c1; assay: purified protein, by the assay type; conditions: other: Fig. 4C/D, substrate of FplA(20–431), 1 nM enzyme, pH 8.5, 26 °C
# Procedure: as §1, §2
# [4] = test system: CCCCCCCCCCCCCCCC(=O)Oc1ccc2c(C)cc(=O)oc2c1; assay: purified protein, by the assay type; conditions: other: Fig. 4C/D, substrate of FplA(20–431), 1 nM enzyme, pH 8.5, 26 °C
# Procedure: as §1, §2
# [5] = other: Fig. 4E, 4-MuH as substrate, construct FplA20-350, pH 8.5, 26.0 °C
# [6] = other: Fig. 4E, 4-MuH as substrate, construct FplA60-350, pH 8.5, 26.0 °C
# [7] = other: Fig. 4E, 4-MuH as substrate, construct FplA60-431, pH 8.5, 26.0 °C
# [8] = other: Fig. 4E, 4-MuH as substrate, construct FplA20-431, pH 8.5, 26.0 °C
# Sequence of FplA(20–431) (Q8R6F6 20-431 limits assumed): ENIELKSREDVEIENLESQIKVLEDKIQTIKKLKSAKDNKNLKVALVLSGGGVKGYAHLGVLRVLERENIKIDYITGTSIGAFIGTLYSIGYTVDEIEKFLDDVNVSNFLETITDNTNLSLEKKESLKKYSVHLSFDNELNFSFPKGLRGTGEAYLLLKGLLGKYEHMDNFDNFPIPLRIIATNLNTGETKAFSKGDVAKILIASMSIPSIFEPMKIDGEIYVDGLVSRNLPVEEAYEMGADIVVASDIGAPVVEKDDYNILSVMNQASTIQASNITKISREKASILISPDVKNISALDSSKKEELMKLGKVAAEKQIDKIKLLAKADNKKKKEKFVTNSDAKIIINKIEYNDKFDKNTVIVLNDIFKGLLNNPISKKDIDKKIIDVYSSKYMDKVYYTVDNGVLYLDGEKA
compound,measurement,setting,value
"CCCCC/C=C\C/C=C\C/C=C\C/C=C\CCCC(=O)C(F)(F)F [ATFMK, arachidonyl trifluoromethyl ketone]","Inhibition of FplA, potency in words",[1],potent inhibitors
FplA20-350 (Fusobacterium nucleatum subsp. nucleatum ATCC 25586),Km,[2]; [5],23.5 ± 6.5 µM
same,kcat,[2]; [5],75 ± 6.2 s⁻¹
FplA60-350 (Fusobacterium nucleatum subsp. nucleatum ATCC 25586),Km,[2]; [6],17.7 ± 8.4 µM
same,kcat,[2]; [6],2.1 ± 0.3 s⁻¹
same,kcat/Km,[2]; [6],120000 ± 60000 M⁻¹ s⁻¹
FplA60-431 (Fusobacterium nucleatum subsp. nucleatum ATCC 25586),Km,[2]; [7],18.2 ± 7.4 µM
same,kcat,[2]; [7],2.8 ± 0.3 s⁻¹
same,kcat/Km,[2]; [7],150000 ± 60000 M⁻¹ s⁻¹
FplA(20–431) (Fusobacterium nucleatum subsp. nucleatum ATCC 25586),Km,[3],500 µM
same,Km,[4],23 µM
same,Km,"[2]; other: Fig. 4C/D, substrate of FplA(20–431), 1 nM enzyme, pH 8.5, 26 °C",19 µM
same,Km,[2]; [8],19.6 ± 5.0 µM
same,kcat,[2]; [8],55 ± 4.0 s⁻¹
same,kcat/Km,[2]; [8],2.8e+06 ± 700000 M⁻¹ s⁻¹
